Laboratory results from patent US20190153103A1 (AbbVie / Abbott, published 2019).

T1: hBMPR1B-His (human BMPR1B extracellular domain, residues K14 to R126, with C-terminal 9x-Histidine tag) (human, UniProt O00238 14-126)
T1 construct: Residues K14-R126 are counted on the hBMPR1B ORF (NM_001203); The IgK signal peptide of the vector is left out; also called hBMPR1B-CHis; human BMPR1B-his
T1 sequence: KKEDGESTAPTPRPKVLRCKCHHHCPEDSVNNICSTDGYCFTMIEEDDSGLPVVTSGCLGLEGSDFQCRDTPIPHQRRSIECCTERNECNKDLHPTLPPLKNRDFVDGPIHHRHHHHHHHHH

T2: rat-his
T2 construct: soluble analyte of the Biacore runs; also called rSCRx91-his; rBMPR1B-CHis
T2 chain: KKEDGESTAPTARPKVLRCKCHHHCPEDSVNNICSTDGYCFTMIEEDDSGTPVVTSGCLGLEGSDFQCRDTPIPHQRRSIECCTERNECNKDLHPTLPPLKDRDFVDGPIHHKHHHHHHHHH

T3: human BMPR1B coated on MSD plates (construct not stated) (human, UniProt O00238 14-126, limits assumed)
T3 construct: also called BMPR1B receptor
T3 sequence: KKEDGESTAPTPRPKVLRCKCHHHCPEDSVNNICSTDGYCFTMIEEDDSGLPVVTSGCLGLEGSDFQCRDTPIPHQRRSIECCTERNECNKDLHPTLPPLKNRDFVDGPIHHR

T4: BMP4-his (human, UniProt P12644 293-408, limits assumed)
T4 construct: not shown: his tag
T4 sequence (looked up): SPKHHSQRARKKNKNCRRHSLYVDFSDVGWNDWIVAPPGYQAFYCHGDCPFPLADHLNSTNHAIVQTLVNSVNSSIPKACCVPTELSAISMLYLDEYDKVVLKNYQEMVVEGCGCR

B1: hBMPR1B-Fc (human BMPR1B extracellular domain, residues K14 to R126, fused to human IgG2 Fc) (Fc fusion)
chain: KKEDGESTAPTPRPKVLRCKCHHHCPEDSVNNICSTDGYCFTMIEEDDSGLPVVTSGCLGLEGSDFQCRDTPIPHQRRSIECCTERNECNKDLHPTLPPLKNRDFVDGPIHHR
notes: also called BMPR1B fused to human Fc fragment; not shown: human IgG2 Fc protein

What was measured:
[1] = target: T1, hBMPR1B-His (human BMPR1B extracellular …); assay: ELISA
[2] = target: T5, BMPR1A-Fc (recombinant protein used in the screen 1 ELISA) (human, UniProt P36894 24-152, limits assumed); assay: ELISA
T5 construct: also called human BMPR1A; not shown: Fc
T5 sequence (P36894 24-152 limits assumed): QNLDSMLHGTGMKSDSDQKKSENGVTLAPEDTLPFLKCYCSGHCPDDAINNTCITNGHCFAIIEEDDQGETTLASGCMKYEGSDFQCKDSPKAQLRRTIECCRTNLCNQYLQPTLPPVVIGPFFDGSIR

[3] = target: T6, irrelevant Fc-tagged protein; assay: ELISA
T6 construct: ELISA control; also called irrelevant Fc construct

[4] = target: B1; assay: ELISA
Cyno-his = target: T7, Cyno-his (cynomolgus); assay: Biacore
T7 construct: extracellular domain; soluble analyte of the Biacore runs; also called cSCRx91-his; cBMPR1B-CHis

rat-his [5] = target: T2, rat-his; assay: Biacore
[6] = target: T1, hBMPR1B-His (human BMPR1B extracellular …); assay: Biacore
[7] = target: T8, human BMPR1B overexpressed on the surface of HEK293T cells (N-terminal Asp-Lys epitope tag, … (human, UniProt O00238 14-502)); assay: flow cytometry
T8 construct: also called HEK293T cells overexpressing hBMPR1B; BMPR1B-expressing HEK293T cells

[8] = target: T9, rat BMPR1B overexpressed on the surface of HEK293T cells (N-terminal Asp-Lys epitope tag, … (rat, UniProt A0A8I6A0G0 62-550)); assay: flow cytometry
T9 construct: whole, on cells

[9] = target: T8, human BMPR1B overexpressed on the …; assay: cell-based or functional assay
[10] = target: T9, rat BMPR1B overexpressed on the surface …; assay: cell-based or functional assay
[11] = target: T3, human BMPR1B coated on MSD plates …; assay: MSD ELISA, BMP2 blocked; parameters: concentration or dose not given beside the values
[12] = target: T3, human BMPR1B coated on MSD plates …; assay: MSD ELISA, BMP4 blocked; parameters: concentration or dose not given beside the values
rat-his [13] = target: T2, rat-his; assay: Biacore, 200 nM
[14] = target: T1, hBMPR1B-His (human BMPR1B extracellular …); assay: SPR, Biacore T200: BMP2-Fc captured on anti-human capture chip, BMPR1B-his injected at 2.5-40 µM, 1:1 model
BMP4-his = target: T4, BMP4-his; assay: SPR, Biacore T200: BMPR1B-Fc captured on anti-human capture chip, BMP4-his injected at 31.3-500 nM, 1:1 model

Binder | ELISA [1] | ELISA [2] | ELISA [3] | ELISA [4] | Kd (Cyno-his) [nM] | Kd (rat-his [5]) [nM] | Kd [6] [nM] | Flow cytometry MFI [7] | Flow cytometry MFI [8] | % live, Fab-saporin, 100pM [9] [%] | % live, Fab-saporin, 100pM [10] [%] | % inhibition [11] [%] | % inhibition [12] [%] | binding result (rat-his [13]) | Kd [14] [nM] | Kd (BMP4-his) [nM]
SC91.1 (murine anti-BMPR1B antibody) (antibody, V domains shown, Murine hybridoma antibody with a kappa light chain) VH: QVQLQQPGAELVKPGASVKLSCKASGYTFTSYWMQWVKQRPGQGLEWIGEIDPSDNYTLYNQKFKGKATLTVDTSSSTAYMQLSSLTSEDSAVYYCARFGYYVDYWGLGTTLTVSS VL: DVVMTQTPLSLPVSLGDQASIFCRSSQSLVHSTGNTYLHWYLQKPGQSPKLLIYKVSNRFSGVPDRFSGSGSGTDFTLKISRVEAEDLGVYFCSQSTHVPFTFGSGTKLEIK | 1.17 | 0.031 | 0.039 | 0.483 | 5.1 | 3.34 | 2.34 | 5520 | 5080 | 9.53 | 15.6 | 38 | 75 | – | – | –
SC91.3 (murine anti-BMPR1B antibody) (antibody, V domains shown, Murine hybridoma antibody) VH: QVQLQQPGAELVKPGASVKLSCKASGYTFTSYWMQWVKQRPGQGLEWIGEIDPSDSYTLYNQKFKGKATLTVDTSSSTAYMQLSSLTSEDSAVYFCARFGYYIEYWGQGTTLTVSS VL: DVVMTQTPLSLPVSLGDQASISCRSSQSLVHSTGNTYLHWYLQKPGQSPKLLIYKVSNRFSGVPDRFSGSGSGTDFTLKISRVEAEDLGVYFCSQSTHVPFTFGSGTKLEIK | 0.883 | 0.035 | 0.039 | 0.423 | 0.503 | – | 0.163 | 6840 | 5840 | 9.34 | 16 | – | – | binds | – | –
SC91.27 (murine anti-BMPR1B antibody) (antibody, V domains shown, Murine hybridoma antibody with the same VL as SC91.20) VH: QVQLQQPGAEVVKPGASVKLSCKASGYTFTNYWMQWVKQRPGQGLEWIGEIDPSDRYTMYNQKFKGKATLIVDTSSSTAYMQLSSLTSEDSAVYFCARFGYYVDYWGQGTTLTVSS VL: DVVMTQTPLSLPVSLGDQASISCRSSQSLVHSTGNTYLHWYLQKPGQSPNLLIYKVSNRFSGVPDRFSGSGSGTDFTLKISRVEAEDLGVYFCSQSTHVPFTFGSGTKLEIK | 0.855 | 0.043 | 0.042 | 0.417 | 2.56 | 2.14 | 1.98 | 6880 | 5970 | 11.9 | 17.9 | – | – | – | – | –
SC91.19 (antibody, V domains shown) VH: QIQLVQSGPELKKPGETVKISCKASGYTFTTYGMNWVKQAPGKGLKWMGWINTYSGVPSSANDFKGRFAFSLETSASTAYLQINNLKNEDTATYFCARSELRNWYFDVWGTGTTVTVSS VL: SFVMTQTPKFLLVSAGDRVTITCKASQSVGNDVAWYQQKPGQSPKLLIYYASNRYTGVPDRFTGSGYGTDFTFTISTVQAEDLAVYFCQQDYSSPFTFGSGTKLEMK | 1.46 | 0.121 | 0.05 | 0.737 | – | – | 8.46 | 7250 | 470 | 14.3 | 102 | 32 | 61 | binds | – | –
SC91.9 (murine anti-BMPR1B antibody) (antibody, V domains shown, Murine hybridoma antibody) VH: QVQLQQPGAELVKPGASVKLSCKASGYTFISYWMHWVKQRPGQGLEWIGMIHPNSGSTNYNESFKSKATLTVDKSSSTAYMQLSSLTSEDSAVYYCARDLLIATVVVTPYFAYWGQGTILTVSS VL: DIQMTQTTSSLSASLGDRVTISCRASQDISNFLNWYQQKPDGTIKFLIYYTSRLHSGVPSRFSGSGSGTDYSLTIRNLEQEDIATYFCQQGNTLPYTFGGGTKLEIK | 1.41 | 0.056 | 0.042 | 0.551 | 0.153 | 0.181 | 0.322 | 5480 | 5270 | 9.44 | 14.7 | 50 | 93 | – | – | –
SC91.11 (antibody, V domains shown) VH: QVQLQQPGAELVKPGASVKLSCKASGYTFTTYWMHWVKQRPGRGLEWIGRIDPNSGGTKYNEKFKSKATLTVDKPSSTACMQLSSLTSEDSAVYYCASRRGDIDVWGTGTTVTVSS VL: DIVMTQSQKFMSTSVGDRVSVTCKASQNVGTNVFWYQQKPGQSPKALIYAASYRYSGVPDRFTGSGSGTDFTLTISNVQSEDLADYFCQQYDSYPLTFGDGTKLELR | 0.791 | 0.117 | 0.04 | 0.387 | 11.1 | – | 1.15 | 7330 | 4660 | 15.5 | 68.7 | – | – | binds | – | –
SC91.15 (murine anti-BMPR1B antibody) (antibody, V domains shown, Murine hybridoma antibody) VH: QVQLQQPGAELVMPGASVKLSCKASGYTLTNYWMHWVKQRPGQGLEWIGDIDPSDTYTNYNHKFKGKATLTVDKSSSTAYMQLSSLTSEDSAVYYCARSGWDYFDSWGQGTTLTVSS VL: not shown | 1.19 | 0.055 | 0.05 | 0.829 | 0.947 | 1.5 | 0.922 | 5610 | 4590 | 11.9 | 18.5 | 11 | 92 | – | – | –
BMP2 fused to a human Fc fragment (Fc fusion, UniProt P12643 283-396, looked up, not shown: human Fc fragment) QAKHKQRKRLKSSCKRHPLYVDFSDVGWNDWIVAPPGYHAFYCHGECPFPLADHLNSTNHAIVQTLVNSVNSKIPKACCVPTELSAISMLYLDENEKVVLKNYQDMVVEGCGCR | – | – | – | – | – | – | – | – | – | – | – | – | – | – | 61000 | –
B1 | – | – | – | – | – | – | – | – | – | – | – | – | – | – | – | 1.2
